Test results as given in patent publication US11891642B2, “Biocatalytic techniques” (HYPHA DISCOVERY LIMITED, priority 2018, dated 2024).

Assay: Concentration of cytochrome P450 in cell-free extract by carbon monoxide difference spectrum (Omura and Sato)
Conditions: effect of codon optimisation, expressed in E. coli BL21 (DE3), value ± SD
Procedure: Measurement is performed according to the method of Omura and Sato et al. (J Biol Chem, 239. 1964, 2370). That is to say, cytochrome P450 is analyzed quantitatively using the following formula, based on the difference in the absorbance of the reduced CO versus the reduced difference spectrum at 450 nm and 490 nm.
Measurement of the concentration of cytochrome P450 were performed according to the method of Omura and Sato et al. (J Biol Chem, 239. 1964, 2370). Cytochrome P450 concentrations of cell-free extracts of induced E. coli BL21 (DE3) Rosetta2 & Tuner cells harbouring either pHD05-SriC01, pHD02-SriC12-SriF05, pHD05-SriC14-SriF06, pHD05-SriC20, pHD05-SriC22 or pHD05-SriC51-SriF08 are shown in Table 2. Carbon monoxide difference spectra for P450SriC01, P450SriC12, P450SriC14, P450SriC20, P450SriC22 and P450SriC51 are shown in FIGS. 9, 10, 11, 19, 20 & 21 respectively.
The native and codon optimised P450sriC12 and ferredoxinsriF05 in pHD02-SriC12-SriF05 and pHD02-SriC12CO-SriF05CO respectively were introduced into E. coli BL21 (DE3). The recombinant strains were cultured and proteins were induced as in Example 2. The cell-free extract material was obtained as in Example 3 and carbon monoxide difference spectrums were measure to calculate the concentration of cytochrome P450.
The resulting plasmids containing the new mutants genes were transformed into recombinant E. coli strains for expression as described in Example 1, cultured and induced as described in Example 2, extracted and processed as described in Example 3 and tested for biocatalytic activity as described in Example 5 above. The carbon monoxide difference spectrum result of R63W mutant of codon optimised P450SriC12 is shown in FIG. 14 and the cytochrome P450 concentration of mutant P450SriC12 are shown in Table 5.

Row | Molecule | P450 concentration [µM]
1 | SriC12-SriF05: cytochrome P450 SriC12 (SEQ ID NO: 29) co-expressed with ferredoxin SriF05 (SEQ ID NO: 30), native coding sequence (protein, listed as Streptomyces rimosus) chain 1: MTEALPFPQDRTCPYDPPAGYQPLRDSRPLSRVTLYDGRPAWVVTGHAESRALLTDPRLSADRQNPAFPSPAPRFETLRKVRTPLLGVDDPEHNTQRRMLIPSFSVKRAAALRPRIQEIVDRLLDAMEQQGPPAELVSAFALPVPSMVICALLGVPYADHELFEGLSRTLLQSADPQEVTEARDKLEDYFTALVERKRKEPGDGLLDELIAERLDSGELGHRELVRMAMLLLVAGHETTSNMLSLGTFTLLEHPEQFAALRADPSLLPAAVEELLRFLSIADGMVRVATEDIEIGGVTIRADDGVIFSTSVVNRDGAAYASPDTLDWERSARHHVAFGFGVHQCLGQNLARAEMEIAFGALFARFPGLRLAVPAAEIPVKPAHALQGLVELPVTW chain 2: MKIDIDTSVCIGSGQCVLTAPGVFTQDDDGFSTLLPGREDGTGDPLVREAARACPVQAIAVTDD | 3.6 ± 0.3

Same assay, conditions: mutant P450SriC12 expressed in E. coli BL21 (DE3)

Row | Molecule | P450 concentration [µM]
2 | Mutant 10 L171I: L171I mutant of codon optimised cytochrome SriC12, SEQ ID NO: 235 (protein, L171I mutant of SriC12) MTEALPFPQDRTCPYDPPAGYQPLRDSRPLSRVTLYDGRPAWVVTGHAESRALLTDPRLSADRQNPAFPSPAPRFETLRKVRTPLLGVDDPEHNTQRRMLIPSFSVKRAAALRPRIQEIVDRLLDAMEQQGPPAELVSAFALPVPSMVICALLGVPYADHELFEGLSRTLIQSADPQEVTEARDKLEDYFTALVERKRKEPGDGLLDELIAERLDSGELGHRELVRMAMLLLVAGHETTSNMLSLGTFTLLEHPEQFAALRADPSLLPAAVEELLRFLSIADGMVRVATEDIEIGGVTIRADDGVIFSTSVVNRDGAAYASPDTLDWERSARHHVAFGFGVHQCLGQNLARAEMEIAFGALFARFPGLRLAVPAAEIPVKPAHALQGLVELPVTW | 12.4
3 | Mutant 14 L230I: L230I mutant of codon optimised cytochrome SriC12, SEQ ID NO: 237 (protein, L230I mutant of SriC12) MTEALPFPQDRTCPYDPPAGYQPLRDSRPLSRVTLYDGRPAWVVTGHAESRALLTDPRLSADRQNPAFPSPAPRFETLRKVRTPLLGVDDPEHNTQRRMLIPSFSVKRAAALRPRIQEIVDRLLDAMEQQGPPAELVSAFALPVPSMVICALLGVPYADHELFEGLSRTLLQSADPQEVTEARDKLEDYFTALVERKRKEPGDGLLDELIAERLDSGELGHRELVRMAMILLVAGHETTSNMLSLGTFTLLEHPEQFAALRADPSLLPAAVEELLRFLSIADGMVRVATEDIEIGGVTIRADDGVIFSTSVVNRDGAAYASPDTLDWERSARHHVAFGFGVHQCLGQNLARAEMEIAFGALFARFPGLRLAVPAAEIPVKPAHALQGLVELPVTW | 3.5

Same assay, conditions: native enzymes expressed in E. coli BL21 (DE3) Rosetta2 & Tuner cells, cell-free extract

Row | Molecule | P450 concentration [µM]
4 | SriC51-SriF08: cytochrome P450 SriC51 (SEQ ID NO: 109) with ferredoxin SriF08 (SEQ ID NO: 110) (protein, listed as Streptomyces rimosus) chain 1: MTTADTMPLAYPFNDADGLALSETYEQVRDRPGLLRVQMAYGEPAWLATRYADARLVLGDRRFSRAEGLERDEPRQSEGQRDSGILSMDPPDHTRLRTLVAKAFTVHQVEKLRPWVRELTHGLIDELEAAGPPVDLVDRYALPIPVAVICRMLGVPEEDRPKFRTWSDAALSTSSLTAEEFEANREELRAYMAKLIEDHRTTPRDDLMTRLIEARDVGDRLSELELIDLCVGILVAGHETTATQIPNFVLSLLDHPGELERLRAEPALIKSAVEELLRFVPLGSGAGFPRYATEDIEVGGTLVRAGEPVLVAVGAANRDALRFDEPGTLNITRDGNQHLGFGHGVHHCLGAPLARLELQEALIALITRFPKLHVAGDVVWKDQMLVRGPRVMPVGW chain 2: MTWKAAIDGQQCMASGMCAGIAPDLFVLDGPHARPLQEEIPEDEAALDAADSCPAMAILIRDGEKVVGPRP | 25.0
5 | SriC14-SriF06: cytochrome P450 SriC14 (SEQ ID NO: 34) with ferredoxin SriF06 (SEQ ID NO: 35) (protein, listed as Streptomyces rimosus) chain 1: MTETSTAFPAQDAPAFPSDRTCPYGLPETYARLRDSEDALRPVTLFDGRTAWVVTKHETARTLLADPRLSSNRTHPDFPLTSPRLAGLRDRRPAFISMDPPEHGPRRRMTISEFTVKRIKGMRPDIERIVHGFLDEMLAAGPPADLVSRFALPVPSMVICQLLGVPYADHDFFQDASRRLVQSTSAEEATGARDDLERYLDGLITTLESEPGPGLLGALVTRQLADGAIDRDELISNALLLLVAGHETTASMTSLSVITLLEHPEQHAALRDDPSLIPGAVEELLRYLAIADVAGARVATADIEVDGQVIRAGEGVIVVHSIANRDAGVFENPDTFDIHRSARHHLSFGYGVHQCLGQNLARLELEIILSALFERIPTLRLATPVERLTLRPGSTIQGVNELPVTW chain 2: MHVTADRDVCVGAGMCALTAPGVFDQDDDGLVTVLTSDIGENDRDAVREAGMLCPSGALRVTE | 15.4
6 | SriC20: cytochrome P450 from Streptomyces rimosus NRRL-2234, SEQ ID NO: 47 (protein, listed as Streptomyces rimosus) MPEIIDLGAYGPDFVADPHPYYAKLRAQGPVHRVRAPEMEPEFPQAWLIVGYDEARAVLADNRFAKDWSRANGSLADSEVLAEWQLMNMLDADPPQHTRLRKLVAREFTTRRVEALRPRVQQITDELLDAMLAAPDGRADLVEALAFPLPMTVICELLGVPDIERDTFRAWSNELVSPTDNEATMTAAREMAAYLDGLIESKRSSPGEDLLSALVRTSDEDGDQLSRQELLGMAFLLLVAGHETTVNLISNGVRALLQHPAQLAALRADPSLLDNAVEEMLRYDGPVETATWRFTAEPVGIGGVEIPAGEIVLVGLAGADRDPERFEAPDTFDITRETRGHVAFGHGIHFCLGAPLARVEGRIAVRTLLDRCPDLALDTAPEALTWRAGMTIRGPQHLPVRWR | 18.8
7 | SriC22: cytochrome P450 from Streptomyces rimosus NRRL-2234, SEQ ID NO: 51 (protein, listed as Streptomyces rimosus) MTTSPTESTTATPPDSTTASAPGTPPDALPSYVGLHPGEPNVMEPELLNDPYAGYGKLREQGALVRGRFLDDSPVWLVTRFDVVREVMRDPRFINNPSRLPGRTEKDPRAQLIELFGIPDHMARYLVDTILTSDPPDHTRLRRLVSRAFTARRIQDLRPRVEAITDELLDRLPAHAQDGVVDLVEHFAYPLPITVICELVGIDEEDRPLWRQFGADLTSLEPKRIGATVPAMVEHIHKVIGERQSALRDDLLSALIRARDDDGGRLSETEMVTMVLTLVLAGHETTAHLISNGTLALLTHPDQRRLLTEDPGLLPRAVHELMRWCGPIQATQLRYASEDVEVAGTQVHKGDALMFSLVAANHDPRHYTEPEKLDLTRQPAGRAEDHVGFGHGMHYCLGASLARQEGEVAFGKLLARYPEVALALPHEQLEEQERIRQPGSWRLRRLPLRLRPED | 18.4
8 | SriC01: cytochrome P450 from Streptomyces rimosus NRRL-2234, amino acid sequence SEQ ID NO: 2 (protein, listed as Streptomyces rimosus) MTETIPFEAVDGAVRPSEEVPVVDLSATGLSDTPLQQAMGLAREHGAVYRRRLHGHEALLVSSLELVTELADENRFAKGVSVALENVREFAGDGLFTAYNDEPNWAKAHDILMPAFALGSMRTYHPAMLKVARRVIGSWDRRAADGTPVDVPDDMTRMTLDTIGLAGFGFDFESFSRATMHPFVEAMVRCLEWSMKRLGREPDGDYTEEDAAFRADADYLASVVDEVIASRTGADGTPGEEAGDDLLGLMLGATHPADGTTLDLANIRNQVITFLIAGHETTSGALSFALYHLLKDPAALRLAQREADELWGDQTDPDPSFEDIGRLPYTRQVLNEALRLWPTAAAFSRQARTDTLLGGRIPLKAGQLVTVLTPMLHRDPAWGDNPELFDPTRFAPEAEAARSPHAYKPFGTGERACIGRQFALHEATMLLAMLVHRYRLIDHSDYRLSIKETLTLKPDGFTLTLARRTPADRAGLRAALAVLPGGAAEPDGTESGTDDGLPTRVRQDTALLLLHGTNYGTCRDFAERIADEATGLGFTTEVAPLDAATGALPTDRPVVIVTASYNGQPTDDAARFVEWLSGDEARAEGVPYAVLGVGDRNWAATYQRVPTLLDERLAALGAERLLPRGEADASGDLNGAVKAFTATLRTELLVRYGDPATIGASTPADATDASYTVREVTGGPLDALAARHGLQPMTVTEAYDLTAPGYPRVKRFLRLTLPEGVTYRTADHLAVLPANGAAAVERAAQVLGVSLEAVLDIRAGAGRGGRDTLPVDRPLTVRQLLTHHLELNARPTAAQRAVLADHNPCPPERAALQAIPDDDPRTTLDLIEEHPALRGVLPWPVLLDLLPALRIRHYSLSSSPAADPRHADLMVSLLPGGTGSGHLHTLRPGDTVLARVQPCREAFRLDPADPTPVILVAAGTGLAPFRGAVADRLAATQLAPALLYFGCDALEADYLHAEELQAAEAAGAVSLRPAFSARPVDGCRYVQHRIAAEAEEVGALLDAGARVYVCGDGNRMAPGVRAAFRELYAARTGATQEEAEVWLRELTAAGRYVEDVYVTG | 33.5
9 | SriC12-SriF05: cytochrome P450 SriC12 (SEQ ID NO: 29) co-expressed with ferredoxin SriF05 (SEQ ID NO: 30), native coding sequence (protein, listed as Streptomyces rimosus) chain 1: MTEALPFPQDRTCPYDPPAGYQPLRDSRPLSRVTLYDGRPAWVVTGHAESRALLTDPRLSADRQNPAFPSPAPRFETLRKVRTPLLGVDDPEHNTQRRMLIPSFSVKRAAALRPRIQEIVDRLLDAMEQQGPPAELVSAFALPVPSMVICALLGVPYADHELFEGLSRTLLQSADPQEVTEARDKLEDYFTALVERKRKEPGDGLLDELIAERLDSGELGHRELVRMAMLLLVAGHETTSNMLSLGTFTLLEHPEQFAALRADPSLLPAAVEELLRFLSIADGMVRVATEDIEIGGVTIRADDGVIFSTSVVNRDGAAYASPDTLDWERSARHHVAFGFGVHQCLGQNLARAEMEIAFGALFARFPGLRLAVPAAEIPVKPAHALQGLVELPVTW chain 2: MKIDIDTSVCIGSGQCVLTAPGVFTQDDDGFSTLLPGREDGTGDPLVREAARACPVQAIAVTDD | 3.6
